Measured values as given in publication PMC9410543.

B1: unnamed (parent)
chain 1: VGDDSGGFSTTVSTEQNVPDPQVGITTMKDLKGKANRGKMDVSGVQAPVGAITTIEDPVLAKKVPETFPELKPGESRHTSDHMSIYKFMGRSHFLCTFTFNSNNKEYTFPITLSSTSNPPHGLPSTLRWFFNLFQLYRGPLDLTIIITGATDVDGMAWFTPVGLAVDTPWVEKESALSIDYKTALGAVRFNTRRTGNIQIRLPWYSYLYAVSGALDGLGDKTDSTFGLVSIQIANYNHSDEYLSFSCYLSVTEQSEFYFPRAPLNSNAMLSTESMMSRIAAGDLESSVDDPRSEEDKRFESHIECRKPYKELRLEVGKQRLKYAQEELSNEVLPPPRKMKGLFSQ
chain 2: not shown
B2: unnamed (parent)
chain 1: B1 chain 1
chain 2: MAVSESQLKKMVSKYKYRDLTVRETVNVITLYKDLKPVLDSYVFNDGSSRELMNLTGTIPVPYRGNTYNIPICLWLLDTYPYNPPICFVKPTSSMTIKTGKHVDANGKIYLPYLHEWKHPQSDLLGLIQVMIVVFGDEPPVFSRPISASYPPYQATGPPNTSYMPGMPGGISPYPSGYPPNPSGYPGCPYPPGGPYPATTSSQYPSQPPVTTVGPSRDGTISEDTIRASLISAVSDKLRWRMKEEMDRAQAELNALKRTEEDLKKGHQKLEEMVTRLDQEVAEVDKNIELLKKKDEELSSALEKMENQSENNDIDEVIIPTAPLYKQILNLYAEENAIEDTIFYLGEALRRGVIDLDVFLKHVRLLSRKQFQLRALMQKARKTAGLSDLY
B3: unnamed (parent)
chain 1: B1 chain 1
chain 2: MATFISVQLKKTSEVDLAKPLVKFIQQTYPSGGEEQAQYCRAAEELSKLRRAAVGRPLDKHEGALETLLRYYDQICSIEPKFPFSENQICLTFTWKDAFDKGSLFGGSVKLALASLGYEKSCVLFNCAALASQIAAEQNLDNDEGLKIAAKHYQFASGAFLHIKETVLSALSREPTVDISPDTVGTLSLIMLAQAQEVFFLKATRDKMKDAIIAKLANQAADYFGDAFKQCQYKDTLPKEVFPVLAAKHCIMQANAEYHQSILAKQQKKFGEEIARLQHAAELIKTVASRYDEYVNVKDFSDKINRALAAAKKDNDFIYHDRVPDLKDLDPIGKATLVKSTPVNVPISQKFTDLFEKMVPVSVQQSLAAYNQRKADLVNRSIAQMREATTLANGVLASLNLPAAIEDVSGDTVPQSILTKSRSVIEQGGIQTVDQLIKELPELLQRNREILDESLRLLDEEEATDNDLRAKFKERWQRTPSNELYKPLRAEGTNFRTVLDKAVQADGQVKECYQSHRDTIVLLCKPEPELNAAIPSANPAKTMQGSEVVNVLKSLLSNLDEVKKEREGLENDLKSVNFDMTSKFLTALAQDGVINEEALSVTELDRVYGGLTTKVQESLKKQEGLLKNIQVSHQEFSKMKQSNNEANLREEVLKNLATAYDNFVELVANLKEGTKFYNELTEILVRFQNKCSDIVFARKTERDELLKDLQQSIAREPSAPSIPTPAYQSSPAGGHAPTPPTPAPRTMPPTKPQPPARPPPPVLPANRAPSATAPSPVGAGTAAPAPSQTPGSAPPPQAQGPPYPTYPGYPGYCQMPMPMGYNPYAYGQYNMPYPPVYHQSPGQAPYPGPQQPSYPFPQPPQQSYYPQQ

Variants of: B1
Assay: protein-fragment complementation assay (split Gaussia luciferase, GLuc2 bait / GLuc1 prey)
Settings: with partner chain of the complex shown;; read off a plot

Variant	response (Log2 normalized LU)
chain 1 Y309A K310A E311A L312A	3

Variants of: B2
Assay: as above
Settings: with partner chain of the complex shown;; read off a plot

Variant	response (Log2 normalized LU)
chain 1 Y309A K310A E311A L312A	4.4

Variants of: B3
Assay: as above
Settings: with partner chain of the complex shown;; read off a plot

Variant	response (Log2 normalized LU)
chain 1 Y309A K310A E311A L312A	4.7
